First the molecules themselves.
B1: Table S3 B row 646 (dsDNA)
DNA 1: GCTCAAACAATAACCACAACACTTCATGCCTCTCTC
DNA 2: GAGAGAGGCATGAAGTGTTGTGGTTATTGTTTGAGC
B2: Table S3 B row 2125 (dsDNA)
DNA 1: CAGGCTGCGGTTGAAATGCATCAGCTCTTTCGTGCC
DNA 2: GGCACGAAAGAGCTGATGCATTTCAACCGCAGCCTG
B3: Table S3 B row 2650 (dsDNA)
DNA 1: CTCCTGGGCTTGTGGTTAGAGCATCATGCAGCAAGG
DNA 2: CCTTGCTGCATGATGCTCTAACCACAAGCCCAGGAG
B4: Table S3 B row 875 (dsDNA)
DNA 1: CTCCTGGGCTTGTGGTTAGAACATGCTGCAGCAAAG
DNA 2: CTTTGCTGCAGCATGTTCTAACCACAAGCCCAGGAG
B5: Table S3 B row 2890 (dsDNA)
DNA 1: CGGTCTGACCACAAACTCTGCCTTACGGCAAGGCTG
DNA 2: CAGCCTTGCCGTAAGGCAGAGTTTGTGGTCAGACCG
B6: Table S3 B row 3061 (dsDNA)
DNA 1: CCTCTGCCCAACCACAATTTTCCCTTCGTCAGCCTT
DNA 2: AAGGCTGACGAAGGGAAAATTGTGGTTGGGCAGAGG
B7: Table S3 B row 533 (dsDNA)
DNA 1: AGTTGTGAAACCACAAAACACAGAAAGGAGGTGGTC
DNA 2: GACCACCTCCTTTCTGTGTTTTGTGGTTTCACAACT
B8: Table S3 B row 1201 (dsDNA)
DNA 1: GTGGGCTGTGGTTAGGAGACATGAAGGAGAATGCCA
DNA 2: TGGCATTCTCCTTCATGTCTCCTAACCACAGCCCAC
B9: Table S3 B row 905 (dsDNA)
DNA 1: CCTCTGCGGTCTCTGCAGCCGTTTGCATTTGCTGAA
DNA 2: TTCAGCAAATGCAAACGGCTGCAGAGACCGCAGAGG
B10: Table S3 B row 2453 (dsDNA)
DNA 1: GCCCTGTGGTTTTCTGAGGCCCCCGAGGAGGAGGTG
DNA 2: CACCTCCTCCTCGGGGGCCTCAGAAAACCACAGGGC
B11: Table S3 B row 708 (dsDNA)
DNA 1: CTCCTGCGGTTGCCAGGCAACCGGCCCCGGGAGTTG
DNA 2: CAACTCCCGGGGCCGGTTGCCTGGCAACCGCAGGAG
B12: Table S3 B row 1412 (dsDNA)
DNA 1: GTCGCCCCCACCGCAAGTATTTCAGCTTCCCTCCGC
DNA 2: GCGGAGGGAAGCTGAAATACTTGCGGTGGGGGCGAC
B13: Table S3 B row 3962 (dsDNA)
DNA 1: GCCCCTCTGCGGTCGCAGCCCCGCCGGGAGTGTGGC
DNA 2: GCCACACTCCCGGCGGGGCTGCGACCGCAGAGGGGC
B14: Table S3 B row 934 (dsDNA)
DNA 1: TCAGAACCGCAGACGTGGCCCTGCGTGGCTTCAGGC
DNA 2: GCCTGAAGCCACGCAGGGCCACGTCTGCGGTTCTGA
B15: Table S3 B row 3703 (dsDNA)
DNA 1: GGAACACTGCGGTCGGGGCGAGGGAGCTGCCGGGGA
DNA 2: TCCCCGGCAGCTCCCTCGCCCCGACCGCAGTGTTCC
B16: Table S3 B row 1934 (dsDNA)
DNA 1: TCCTCCCCCAACCGCACCCTCAGCTTCATGTTTCAG
DNA 2: CTGAAACATGAAGCTGAGGGTGCGGTTGGGGGAGGA
B17: Table S3 B row 1304 (dsDNA)
DNA 1: TCTGCTGCTTCTGTGGTTTACGGAATTTGTAACCCT
DNA 2: AGGGTTACAAATTCCGTAAACCACAGAAGCAGCAGA
B18: Table S3 B row 601 (dsDNA)
DNA 1: GGTTCCTTGCGGTTCGCGGCGTGCCGGGCGTGACAA
DNA 2: TTGTCACGCCCGGCACGCCGCGAACCGCAAGGAACC
B19: Table S3 B row 2319 (dsDNA)
DNA 1: CCCCGGCAGAAACCGCACCCCACTCCCCATAGCCAC
DNA 2: GTGGCTATGGGGAGTGGGGTGCGGTTTCTGCCGGGG
B20: Table S3 B row 4026 (dsDNA)
DNA 1: CCTCCTGTGGTTAGTTCCTGCCCGATCAGGCAGGAG
DNA 2: CTCCTGCCTGATCGGGCAGGAACTAACCACAGGAGG
B21: Table S3 B row 2109 (dsDNA)
DNA 1: ATGTCAGTAACCACAAACGAGCCACAGCATAAGAAC
DNA 2: GTTCTTATGCTGTGGCTCGTTTGTGGTTACTGACAT
B22: Table S3 B row 2281 (dsDNA)
DNA 1: ACCCCAAACCCACAAACCCACCTGAAGGAACCAACT
DNA 2: AGTTGGTTCCTTCAGGTGGGTTTGTGGGTTTGGGGT
B23: Table S3 B row 3940 (dsDNA)
DNA 1: TCTCTAGTTCCCATTATTTCTGTGGTTAATTTCACC
DNA 2: GGTGAAATTAACCACAGAAATAATGGGAACTAGAGA
B24: Table S3 B row 1458 (dsDNA)
DNA 1: TTCTCCACTGCCTTCTTTACCTCACCTACCACATAA
DNA 2: TTATGTGGTAGGTGAGGTAAAGAAGGCAGTGGAGAA
B25: Table S3 B row 3915 (dsDNA)
DNA 1: CACCTGACCACAAGGCACACGAAGATCCTTATCACA
DNA 2: TGTGATAAGGATCTTCGTGTGCCTTGTGGTCAGGTG
B26: Table S3 B row 2682 (dsDNA)
DNA 1: TGGAAACCACAAGTTATTCCCTGCAAGCCGTAAGCA
DNA 2: TGCTTACGGCTTGCAGGGAATAACTTGTGGTTTCCA
B27: Table S3 B row 878 (dsDNA)
DNA 1: CCCTTTGTGGTCACAAAAACATGTCCTAGTTGAGAT
DNA 2: ATCTCAACTAGGACATGTTTTTGTGACCACAAAGGG
B28: Table S3 B row 1595 (dsDNA)
DNA 1: CAGTAGGCTGCGGTTGCGCGCGCCGGGTGTGGGCCC
DNA 2: GGGCCCACACCCGGCGCGCGCAACCGCAGCCTACTG
B29: Table S3 B row 1899 (dsDNA)
DNA 1: CCGCCGCGACCGCAGGCCTCCGTTCAGCCGGGGTAA
DNA 2: TTACCCCGGCTGAACGGAGGCCTGCGGTCGCGGCGG
B30: Table S3 B row 2863 (dsDNA)
DNA 1: CCGCCCTGTGGTTTTGGAGCCCTTGCTCCCGGCGCA
DNA 2: TGCGCCGGGAGCAAGGGCTCCAAAACCACAGGGCGG
B31: Table S3 B row 2983 (dsDNA)
DNA 1: ACTCTGTGGTTTCATTGCCTGCCCGTAAATGCAGCT
DNA 2: AGCTGCATTTACGGGCAGGCAATGAAACCACAGAGT
B32: Table S3 B row 2473 (dsDNA)
DNA 1: CCCACCCAGCAAGCCGTCCTAACCACAACAGCCCTC
DNA 2: GAGGGCTGTTGTGGTTAGGACGGCTTGCTGGGTGGG
B33: Table S3 B row 1205 (dsDNA)
DNA 1: TCAGCCTGTGGTTTCTGAAGACCTCCTCGAAGTCAT
DNA 2: ATGACTTCGAGGAGGTCTTCAGAAACCACAGGCTGA
B34: Table S3 B row 1232 (dsDNA)
DNA 1: CTCCTCTGTGGTCAGCCATCAATTCATCCCAGCCCG
DNA 2: CGGGCTGGGATGAATTGATGGCTGACCACAGAGGAG
B35: Table S3 B row 3681 (dsDNA)
DNA 1: CGGCACCCTCCTTCGTCCCTGCCAACCGCCTCCACC
DNA 2: GGTGGAGGCGGTTGGCAGGGACGAAGGAGGGTGCCG
B36: Table S3 B row 2350 (dsDNA)
DNA 1: CCTGTCTTGTGGTTAAGTCAAGGCAGGCAATGCTTT
DNA 2: AAAGCATTGCCTGCCTTGACTTAACCACAAGACAGG
B37: Table S3 B row 2861 (dsDNA)
DNA 1: ACGATCCAACCGCATTCACCCCGTAAGCCGCTTCCA
DNA 2: TGGAAGCGGCTTACGGGGTGAATGCGGTTGGATCGT
B38: Table S3 B row 75 (dsDNA)
DNA 1: GCGTCCTTTGCGGTCTTTTGTCCACGTTCGGGTCAA
DNA 2: TTGACCCGAACGTGGACAAAAGACCGCAAAGGACGC
B39: Table S3 B row 207 (dsDNA)
DNA 1: GGCTCAAAACCACAGAGAAGCCTCCTATAGTGGGAT
DNA 2: ATCCCACTATAGGAGGCTTCTCTGTGGTTTTGAGCC
B40: Table S3 B row 2874 (dsDNA)
DNA 1: TCAGTGCGGTCAGGGAGTCTGTACTGCCTGGATGGC
DNA 2: GCCATCCAGGCAGTACAGACTCCCTGACCGCACTGA
B41: Table S3 B row 1215 (dsDNA)
DNA 1: ACAGAGAAACCACAGCCCTGAGCCTCTTCATGACAT
DNA 2: ATGTCATGAAGAGGCTCAGGGCTGTGGTTTCTCTGT
B42: Table S3 B row 2419 (dsDNA)
DNA 1: GGCTACAGCAACCGCAAGGCATCACGGAGGTCGTAG
DNA 2: CTACGACCTCCGTGATGCCTTGCGGTTGCTGTAGCC

Chain of RUNX1 (Q01196 whole entry): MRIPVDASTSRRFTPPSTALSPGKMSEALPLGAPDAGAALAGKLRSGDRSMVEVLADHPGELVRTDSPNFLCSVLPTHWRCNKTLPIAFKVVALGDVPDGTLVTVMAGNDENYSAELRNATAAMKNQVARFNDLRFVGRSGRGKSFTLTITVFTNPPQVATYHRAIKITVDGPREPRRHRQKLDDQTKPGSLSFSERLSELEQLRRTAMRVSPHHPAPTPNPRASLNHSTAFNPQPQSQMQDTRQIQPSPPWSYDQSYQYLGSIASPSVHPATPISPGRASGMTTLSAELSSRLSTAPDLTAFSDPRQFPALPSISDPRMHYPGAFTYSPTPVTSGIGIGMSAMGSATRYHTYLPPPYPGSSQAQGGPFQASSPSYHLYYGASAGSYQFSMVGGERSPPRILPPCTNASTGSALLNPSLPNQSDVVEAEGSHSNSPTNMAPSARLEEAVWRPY

The data set has as its target RUNX1 (Homo sapiens, UniProt Q01196). In words: gcPBM; 2 nM RUNX1. The following applies: tags: N-terminal GST (pDEST15), kept (PMC6008103); label: surface-attached array probe.
Regarding B1, the binding signal was 5040 PBM fluorescence, median of replicate spots.
Regarding B2, the binding signal was 4740 PBM fluorescence, median of replicate spots.
As for B3, the figure is 6170 PBM fluorescence, median of replicate spots.
Regarding B4, the binding signal is 6070 PBM fluorescence, median of replicate spots.
As for B5, the figure is 5700 PBM fluorescence, median of replicate spots.
As for B6, the figure is 6030 PBM fluorescence, median of replicate spots; as for B7, 5640 PBM fluorescence, median of replicate spots.
As for B8, the figure is 4150 PBM fluorescence, median of replicate spots; as for B9, 4320 PBM fluorescence, median of replicate spots; as for B10, 5060 PBM fluorescence, median of replicate spots.
As for B11, the binding signal is 3720 PBM fluorescence, median of replicate spots.
Consider B12, for which the binding signal is 6050 PBM fluorescence, median of replicate spots.
As for B13, the figure is 4660 PBM fluorescence, median of replicate spots; as for B14, 4860 PBM fluorescence, median of replicate spots.
As for B15, the figure is 4100 PBM fluorescence, median of replicate spots; as for B16, 3950 PBM fluorescence, median of replicate spots.
As for B17, the figure is 5370 PBM fluorescence, median of replicate spots; as for B18, 5880 PBM fluorescence, median of replicate spots.
For B19, the binding signal is 4670 PBM fluorescence, median of replicate spots.
The same measure for B20: 4260 PBM fluorescence, median of replicate spots; for B21: 5490 PBM fluorescence, median of replicate spots.
As for B22, the figure is 5110 PBM fluorescence, median of replicate spots; as for B23, 5800 PBM fluorescence, median of replicate spots.
For B24, the binding signal was 5560 PBM fluorescence, median of replicate spots.
For B25, the binding signal was 5610 PBM fluorescence, median of replicate spots.
As for B26, the figure is 4300 PBM fluorescence, median of replicate spots; as for B27, 3830 PBM fluorescence, median of replicate spots; as for B28, 5670 PBM fluorescence, median of replicate spots.
With B29, the binding signal was 6120 PBM fluorescence, median of replicate spots.
As for B30, the figure is 4640 PBM fluorescence, median of replicate spots.
For the molecule B31, the binding signal was 5930 PBM fluorescence, median of replicate spots.
As for B32, the figure is 5020 PBM fluorescence, median of replicate spots; as for B33, 6080 PBM fluorescence, median of replicate spots; as for B34, 4200 PBM fluorescence, median of replicate spots.
The same measure for B35: 5850 PBM fluorescence, median of replicate spots.
The same measure for B36: 5190 PBM fluorescence, median of replicate spots; for B37: 4500 PBM fluorescence, median of replicate spots; for B38: 4170 PBM fluorescence, median of replicate spots.
As to B39, the binding signal is 5720 PBM fluorescence, median of replicate spots.
As for B40, the figure is 5600 PBM fluorescence, median of replicate spots.
As for B41, the binding signal was 4430 PBM fluorescence, median of replicate spots.
Turning to B42, the binding signal was 5220 PBM fluorescence, median of replicate spots.
